molecular target: feline FcRn complex (FcRn-α subunit and β-microglobulin), biotin labeled (feline); test: SPR, pH 6

Row | Binder | Kd [nM]
1 | feline IgG1a S252N (antibody, part only; not given: variable domains, not shown: another chain or arm of the molecule) constant: ASTTAPSVFPLAPSCGTTSGATVALACLVLGYFPEPVTVSWNSGALTSGVHTFPAVLQASGLYSLSSMVTVPSSRWLSDTFTCNVAHPPSNTKVDKTVRKTDHPPGPKPCDCPKCPPPEMLGGPSIFIFPPKPKDTLNISRTPEVTCLVVDLGPDDSDVQITWFVDNTQVYTAKTSPREEQFNSTYRVVSVLPILHQDWLKGKEFKCKVNSKSLPSPIERTISKAKGQPHEPQVYVLPPAQEELSRNKVSVTCLIKSFHPPDIAVEWEITGQPEPENNYRTTPPQLDSDGTYFVYSKLSVDRSHWQRGNTYTCSVSHEALHSHHTQKSLTQSPGK | 400
2 | feline IgG1a S252T (antibody, part only; not given: Variable domains, not shown: another chain or arm of the molecule) constant: ASTTAPSVFPLAPSCGTTSGATVALACLVLGYFPEPVTVSWNSGALTSGVHTFPAVLQASGLYSLSSMVTVPSSRWLSDTFTCNVAHPPSNTKVDKTVRKTDHPPGPKPCDCPKCPPPEMLGGPSIFIFPPKPKDTLTISRTPEVTCLVVDLGPDDSDVQITWFVDNTQVYTAKTSPREEQFNSTYRVVSVLPILHQDWLKGKEFKCKVNSKSLPSPIERTISKAKGQPHEPQVYVLPPAQEELSRNKVSVTCLIKSFHPPDIAVEWEITGQPEPENNYRTTPPQLDSDGTYFVYSKLSVDRSHWQRGNTYTCSVSHEALHSHHTQKSLTQSPGK | 1190
3 | feline IgG1a S254F (antibody, part only; not given: Variable domains, not shown: another chain or arm of the molecule) constant: ASTTAPSVFPLAPSCGTTSGATVALACLVLGYFPEPVTVSWNSGALTSGVHTFPAVLQASGLYSLSSMVTVPSSRWLSDTFTCNVAHPPSNTKVDKTVRKTDHPPGPKPCDCPKCPPPEMLGGPSIFIFPPKPKDTLSIFRTPEVTCLVVDLGPDDSDVQITWFVDNTQVYTAKTSPREEQFNSTYRVVSVLPILHQDWLKGKEFKCKVNSKSLPSPIERTISKAKGQPHEPQVYVLPPAQEELSRNKVSVTCLIKSFHPPDIAVEWEITGQPEPENNYRTTPPQLDSDGTYFVYSKLSVDRSHWQRGNTYTCSVSHEALHSHHTQKSLTQSPGK | 568
4 | feline IgG1a S254D (antibody, part only; not given: Variable domains, not shown: another chain or arm of the molecule) constant: ASTTAPSVFPLAPSCGTTSGATVALACLVLGYFPEPVTVSWNSGALTSGVHTFPAVLQASGLYSLSSMVTVPSSRWLSDTFTCNVAHPPSNTKVDKTVRKTDHPPGPKPCDCPKCPPPEMLGGPSIFIFPPKPKDTLSIDRTPEVTCLVVDLGPDDSDVQITWFVDNTQVYTAKTSPREEQFNSTYRVVSVLPILHQDWLKGKEFKCKVNSKSLPSPIERTISKAKGQPHEPQVYVLPPAQEELSRNKVSVTCLIKSFHPPDIAVEWEITGQPEPENNYRTTPPQLDSDGTYFVYSKLSVDRSHWQRGNTYTCSVSHEALHSHHTQKSLTQSPGK | 474
5 | feline IgG1a S252P (antibody, part only; not given: Variable domains, not shown: another chain or arm of the molecule) constant: ASTTAPSVFPLAPSCGTTSGATVALACLVLGYFPEPVTVSWNSGALTSGVHTFPAVLQASGLYSLSSMVTVPSSRWLSDTFTCNVAHPPSNTKVDKTVRKTDHPPGPKPCDCPKCPPPEMLGGPSIFIFPPKPKDTLPISRTPEVTCLVVDLGPDDSDVQITWFVDNTQVYTAKTSPREEQFNSTYRVVSVLPILHQDWLKGKEFKCKVNSKSLPSPIERTISKAKGQPHEPQVYVLPPAQEELSRNKVSVTCLIKSFHPPDIAVEWEITGQPEPENNYRTTPPQLDSDGTYFVYSKLSVDRSHWQRGNTYTCSVSHEALHSHHTQKSLTQSPGK | 7030
6 | feline IgG1a S252V (antibody, part only; not given: Variable domains, not shown: another chain or arm of the molecule) constant: ASTTAPSVFPLAPSCGTTSGATVALACLVLGYFPEPVTVSWNSGALTSGVHTFPAVLQASGLYSLSSMVTVPSSRWLSDTFTCNVAHPPSNTKVDKTVRKTDHPPGPKPCDCPKCPPPEMLGGPSIFIFPPKPKDTLVISRTPEVTCLVVDLGPDDSDVQITWFVDNTQVYTAKTSPREEQFNSTYRVVSVLPILHQDWLKGKEFKCKVNSKSLPSPIERTISKAKGQPHEPQVYVLPPAQEELSRNKVSVTCLIKSFHPPDIAVEWEITGQPEPENNYRTTPPQLDSDGTYFVYSKLSVDRSHWQRGNTYTCSVSHEALHSHHTQKSLTQSPGK | 4470

The next binders have a lower Kd than those just listed; values first:

Row | Kd [nM] | Binder
7 | 192 | feline IgG1a S252Q (antibody, part only; not given: Variable domains, not shown: another chain or arm of the molecule) constant: ASTTAPSVFPLAPSCGTTSGATVALACLVLGYFPEPVTVSWNSGALTSGVHTFPAVLQASGLYSLSSMVTVPSSRWLSDTFTCNVAHPPSNTKVDKTVRKTDHPPGPKPCDCPKCPPPEMLGGPSIFIFPPKPKDTLQISRTPEVTCLVVDLGPDDSDVQITWFVDNTQVYTAKTSPREEQFNSTYRVVSVLPILHQDWLKGKEFKCKVNSKSLPSPIERTISKAKGQPHEPQVYVLPPAQEELSRNKVSVTCLIKSFHPPDIAVEWEITGQPEPENNYRTTPPQLDSDGTYFVYSKLSVDRSHWQRGNTYTCSVSHEALHSHHTQKSLTQSPGK
8 | 14.4 | feline IgG1a S434I (antibody, part only; not given: Variable domains, not shown: another chain or arm of the molecule) constant: ASTTAPSVFPLAPSCGTTSGATVALACLVLGYFPEPVTVSWNSGALTSGVHTFPAVLQASGLYSLSSMVTVPSSRWLSDTFTCNVAHPPSNTKVDKTVRKTDHPPGPKPCDCPKCPPPEMLGGPSIFIFPPKPKDTLSISRTPEVTCLVVDLGPDDSDVQITWFVDNTQVYTAKTSPREEQFNSTYRVVSVLPILHQDWLKGKEFKCKVNSKSLPSPIERTISKAKGQPHEPQVYVLPPAQEELSRNKVSVTCLIKSFHPPDIAVEWEITGQPEPENNYRTTPPQLDSDGTYFVYSKLSVDRSHWQRGNTYTCSVSHEALHIHHTQKSLTQSPGK
9 | 64.2 | feline IgG1a S254G (antibody, part only; not given: Variable domains, not shown: another chain or arm of the molecule) constant: ASTTAPSVFPLAPSCGTTSGATVALACLVLGYFPEPVTVSWNSGALTSGVHTFPAVLQASGLYSLSSMVTVPSSRWLSDTFTCNVAHPPSNTKVDKTVRKTDHPPGPKPCDCPKCPPPEMLGGPSIFIFPPKPKDTLSIGRTPEVTCLVVDLGPDDSDVQITWFVDNTQVYTAKTSPREEQFNSTYRVVSVLPILHQDWLKGKEFKCKVNSKSLPSPIERTISKAKGQPHEPQVYVLPPAQEELSRNKVSVTCLIKSFHPPDIAVEWEITGQPEPENNYRTTPPQLDSDGTYFVYSKLSVDRSHWQRGNTYTCSVSHEALHSHHTQKSLTQSPGK
10 | 1.02 | feline IgG1a S434H (antibody, part only; not given: variable domains and light chain, not shown: another chain or arm of the molecule; small tags and cut ends) constant: ASTTAPSVFPLAPSCGTTSGATVALACLVLGYFPEPVTVSWNSGALTSGVHTFPAVLQASGLYSLSSMVTVPSSRWLSDTFTCNVAHPPSNTKVDKTVRKTDHPPGPKPCDCPKCPPPEMLGGPSIFIFPPKPKDTLSISRTPEVTCLVVDLGPDDSDVQITWFVDNTQVYTAKTSPREEQFNSTYRVVSVLPILHQDWLKGKEFKCKVNSKSLPSPIERTISKAKGQPHEPQVYVLPPAQEELSRNKVSVTCLIKSFHPPDIAVEWEITGQPEPENNYRTTPPQLDSDGTYFVYSKLSVDRSHWQRGNTYTCSVSHEALHHHHTQKSLTQSPGK
11 | 0.711 | feline IgG1a S254E (antibody, part only; not given: Variable domains, not shown: another chain or arm of the molecule) constant: ASTTAPSVFPLAPSCGTTSGATVALACLVLGYFPEPVTVSWNSGALTSGVHTFPAVLQASGLYSLSSMVTVPSSRWLSDTFTCNVAHPPSNTKVDKTVRKTDHPPGPKPCDCPKCPPPEMLGGPSIFIFPPKPKDTLSIERTPEVTCLVVDLGPDDSDVQITWFVDNTQVYTAKTSPREEQFNSTYRVVSVLPILHQDWLKGKEFKCKVNSKSLPSPIERTISKAKGQPHEPQVYVLPPAQEELSRNKVSVTCLIKSFHPPDIAVEWEITGQPEPENNYRTTPPQLDSDGTYFVYSKLSVDRSHWQRGNTYTCSVSHEALHSHHTQKSLTQSPGK
12 | 53 | feline IgG1a S254A (antibody, part only; not given: Variable domains, not shown: another chain or arm of the molecule) constant: ASTTAPSVFPLAPSCGTTSGATVALACLVLGYFPEPVTVSWNSGALTSGVHTFPAVLQASGLYSLSSMVTVPSSRWLSDTFTCNVAHPPSNTKVDKTVRKTDHPPGPKPCDCPKCPPPEMLGGPSIFIFPPKPKDTLSIARTPEVTCLVVDLGPDDSDVQITWFVDNTQVYTAKTSPREEQFNSTYRVVSVLPILHQDWLKGKEFKCKVNSKSLPSPIERTISKAKGQPHEPQVYVLPPAQEELSRNKVSVTCLIKSFHPPDIAVEWEITGQPEPENNYRTTPPQLDSDGTYFVYSKLSVDRSHWQRGNTYTCSVSHEALHSHHTQKSLTQSPGK

Reference: patent US20240400708A1
